Measurements from paper doi:10.1101/2025.09.10.675359.

Target: recombinant human CD4 (rCD4) (human, UniProt P01730 26-396)
Test: BLI

B1: Apt62 (Aptamer 62) (structured_DNA)
DNA: ATCCAGAGTGACGCAGCACCACCACCGTACAATTCGCTTTCTTTTTTCATTACCTACTCTGGCTTTTT
- Kd: 536 nM
